PMC8998336, “Structural and Biophysical Insights into SPINK1 Bound to Human Cationic Trypsin” (International Journal of Molecular Sciences, 2022)

How the values were obtained:
Settings in all cases: both partners purified
[1] = target: T1, human cationic trypsin (TRY1) p.S200A (human, UniProt P07477 24-247, p.S200A); experiment: SPR; BIAcore T200, TRY1 p.S200A amine-coupled to a CM5 chip; SPINK1 3.125-50 nM, single-cycle kinetics, 37 °C, 50 µL/min; 20 mM Hepes pH 7.4, 150 mM NaCl, 2 mM CaCl2, 0.05% Tween20; 1:1 Langmuir model
T1 construct: human cationic trypsin (TRY1); cloned as amino acids 16-247 (signal peptide removed); His6-tag and propeptide removed after enterokinase digestion; the final structure contains amino acids 24-247; catalytic serine replaced by alanine; also called TRY1 S200A; not shown: His6, N-terminal, cleaved

[2] = target: T2, human cationic trypsin (TRY1) WT (human, UniProt P07477 24-247); experiment: enzyme inhibition assay (Morrison tight-binding fit); 100 pM TRY1, 1 mM L-BAPA, SPINK1 15.625-2000 pM; 20 mM Hepes pH 7.4, 150 mM NaCl, 2 mM CaCl2, 0.05% Tween20; 37 °C; initial rates after a 5 h lag phase; Morrison's quadratic equation
T2 construct: human cationic trypsin (TRY1); cloned as amino acids 16-247 (signal peptide removed); His6-tag and propeptide removed after enterokinase digestion; not shown: His6, N-terminal, cleaved

[3] = target: T1, human cationic trypsin (TRY1) p.S200A; experiment: ITC; MicroCal PEAQ-ITC, 37 °C; TRY1 p.S200A in the cell at 5-10 µM, SPINK1 in the syringe at 50-100 µM; 20 mM Hepes pH 7.4, 150 mM NaCl, 2 mM CaCl2; one-site binding model

| Binder | half-life t1/2 of the complex [1] [h] | kon [1] [M⁻¹ s⁻¹] | Ki [2] [nM] | dH [3] [kcal/mol] |
| --- | --- | --- | --- | --- |
| serine protease inhibitor Kazal-type 1 (SPINK1) WT (natural protein, human, UniProt P00995 24-79, looked up, N-terminal truncation removes the signal peptide; pET47b construct with His6-tag and HRV3C cleavage site; source: SHuffle T7 Express E. coli, purified (HisTrap HP, HRV3C digestion, His6-tag removed on the same HisTrap column); not shown: His6, N-terminal, cleaved) DSLGREAKCYNELNGCTKIYDPVCGTDGNTYPNECVLCFENRKRQTSILIQKSGPC | ~1 | 250000 | < 0.05 | ~-10 |
| serine protease inhibitor Kazal-type 1 (SPINK1) p.N34S (natural protein, human, UniProt P00995 24-79, looked up, made by site directed mutagenesis; pET47b construct with His6-tag and HRV3C cleavage site; also called SPINK1 N34S; p.N34S mutant; source: SHuffle T7 Express E. coli, purified (HisTrap HP, HRV3C digestion, His6-tag removed on the same HisTrap column); not shown: His6, N-terminal, cleaved) DSLGREAKCYSELNGCTKIYDPVCGTDGNTYPNECVLCFENRKRQTSILIQKSGPC | ~1 | 250000 | < 0.05 | ~-10 |
